Reference: a protein production outcome set (Wang et al. 2014)

Experiment: label from the status in PepcDB records

Sequence	protein production
MRMKPLKRSLPLLLALLLAACAGVKPPAAQPAQPETKPAAESGPDEAKLPKVALSPEILYGVLAGEIAARRGAAGSAGLTYLDLARETRDPRMAQRAAEFCLLSGQLKPATEALQLWIELDPESLPAREQLFITLMRGGKLAESKPLIEELLRLEPQRAPAIFVQLARLSARQDGGSAPSYRLVQELADRYPDLPEARFAVLAAAADNNDQAAVDRELNRLAGIAPKWDLPVAWQVDRLRRKDINEAADFLQRELARRPDAGLELQIAYPRLLVGAKRFPEARSAFEALLKTHPDNPDLLYATGLLAYQMRDLKTADDRLQRALARQYPEQDFVRYTLGQIAEDDRDAERAGNWYRQVGPGQQYLPAQSRLAMLEAADGRLDEALSRLSGLGGTDQEKVSLALLQSQLAREAKQPRRAYDLLTQALQRQPRSSELLYERSLVSDMLGNAGNAERDLRLILKDKPGDAQALNALGYTLANRTSRYQEAYGYIEKALKAEPDNPVIQDSMGWVQYKLGRLDAARKALEKAYAAMQDPEVGAHLGEVLWKQGRRDEALAVWRKELAQHPGHEVIAETMRRLGAKP	failed
MRNDRSFIELRARERAHALLDDGSYRELLDPFEGIMSPWLGAQGIVPQSDDGMVVAKGTINGQPAVVIAIEGTFQGGSMGEVSGAKMAAALELAAEDNRNGIPTQAVLCLETGGVRLQEANLGLAAIADIHAAIVDLRRYTPVVGIITGTVGCFGGMSIAAALCSYLIVTREARLGLNGPQVIEQEAGIEEYDSRNRPFIWSMTGGEIRAASGLVDALVNDGVNAVKTAMIEAIAKGVPAQHRSDNYDDYLRRLSQFDTRQQADTAQIKQLFAREDK	not failed
MRNIAVILAGGSGQRLGENIPKQFLKIAGKKVIEHTITVFQNHSLIDEIVVVVHPDYIRDVEDISLRNSFNKLKKILLGGKERYHSSLAAINAYDEEVNLLFHDSVRPLVNERIINDCIRALLTYNAVDVAIPTTDTIIQVDDNNEIVKIPSRILLRNGQTPQAFKRSVIKAAYEKALLDPLFKTTDDCGVVLKYLPDESIYVVNGEQFNMKLTYKEDIFLLDKLFQLRSIRNQPTLLEKSEMEELQGKVVVVFGGTYGIGQDICEICREYKTSLYVYSRSTGVDVSNSQSVRRVLSEIFDKEGRIDWIVNTAGILDKQPLANMSYEAVHQSIDVNYLGNIIVAKESFFYLKESKGSLLFFTSSSYTRGRALYSLYSSSKAAIVNFVQALSEEWFEYGIRVNCINPERTKTPMRIQNFGNEPEDTLLEPKVVAIVSVNTLLSEMTGEVVDVKRLEHHHHHH	failed
MRNLRKDIVSRSSVGSIQIHGAKTHNLRDVTVCIPKHALVGVAGVSGSGKTSLVSTLAVGAQQAVSSLFPAFVQARLNTLEPGLVDGLQGLTFTAIVGQKKFSRNARSSVSTASGIAPYLRLLFSRSGSPSAGYSPSYSPNDPRGMCMDCSGLGYVDDIDLQELIAPDRSLNEGAVRFPSFEPGTYRWKRLVCSGLFDPDVPWKELPEASRKLLLHGQGVRLERPLTGYPKHGIFDGIIPRLKASYLEKANAKTTEKEDAALRRIVKRVVCPHCHGQRINEAARASRIEGLNIAEASHLSIDECIAFIKTITDEITEAPRQAVLARLNNMRDIGLGYLSLDRPTDTLSGGEAQRLRLVSLLDAPITDATFVMDEPSSGLHPADIERLLRSLRKLRDSGNTVIIVEHNLQVLAACDHVVELGPGAGDDGGRVLFEGSPRSLTRSDTPTGKALRAGIQLNRRSRPATDVIEVTHARCNNLGDVSVSFPVGALTVVSGVAGSGKSSLASALAQQHPEVTIIDQLPLAASSRSSILTALGLESPIREAFSKISGLTTSWFSANEKGACPLCKGRGTTHVDMAFMDDVQTPCERCGGRKFNETTMAVRLPMGSLNPTIADVLDSGLNQVSELYATQDDVLTVISLLQQVGLGYLTLGRTLNTLSGGELQRIKLVQFLKEHREEQESVLVLDEITTGLHPKDVEQLIQFLRRLSERGATAIAIDHNPGLISQADYNIDLGPGAEAAGGTVVFSGTAQGLADCPESTTGKWLHKLNCSSSGVEQVP	failed
MRNLTFLTRCKPLAASVLALMLLGGAAKSFANNDLPDLGTAAVNTFSLEKEMIYGDAYMRVIRSSAPMLNDPVLSQYLTELGNKLVAHATGVKTPFYFFLLQNDEINAFAFFGGHVAVHTGLFLNADNESELASVLGHEITHVTQRHLARSLEAQQKTGPATVAGLLGAILLTIAVPQAGMAALATTQAMATQSKINYTRLHEKEADRIGMQILVDAGFDPNASAEFFGKLASRYRFTTTPPQMLLTHPLPESRISEARDRAQQYPHRYVPDNLNFQLAKARIQVRFSSFSDDAVLSMFEKQLNKQTYGFKEAALYGKALALFRLKKFDESEKIVDELLKIDDNNLFYIDTKTDLLNERKDYAQAIKLLEAQRNLKPTSQVINANLANIYIEAGEPAKAIPLLEDMIFLDKQNQLPYQLLNLAYKKLGNPGMEYFSNAELMALGANYKGAIDQLNFAYRASEGNQLQLARIEARIRQFKQADREMDALKLEHHHHHH	failed
MRNSKSLKLTIMGIGIALNIIGAFIALNLRLPIYLDSIGTIMVGFVLGPVYGMATGVLGSVVSGITFDIYSLYFAPVQIFTGFFAGYFYEKGLMKGKKLFLSVFVMTLFVSFTGACLTAYIFGGITSSGSSYIIVILNNLGVNPVVSAFITQFLTDYCDKLVAVLIMLQVVVRLPKNILLRVQNN	failed
MRPEHIPNIISTLRIFLVYPVVHLMLAERYTAALALFVVAGVSDAIDGFLAKHYGWQSRLGSYLDPLADKLLLVCCFVAGAWLGLLPVWMAAAVLLRDAVIVTGAIAYYLLLHPFDGQPILASKLNTLLQLAFIVAILFNRGVSELPPFLLDGLLAATLATTIASGAIYVYVWGRNYRLETAQGRR	failed
MRPEIAVLDIQGQYRVYTEFYRADAAENTIILINGSLATTASFAQTVRNLHPQFNVVLFDQPYSGKSKPHNRQERLISKETEAHILLELIEHFQADHVMSFSWGGASTLLALAHQPRYVKKAVVSSFSPVINEPMRDYLDRGCQYLAACDRYQVGNLVNDTIGKHLPSLFKRFNYRHVSSLDSHEYAQMHFHINQVLEHDLERALQGARNINIPVLFINGERDEYTTVEDARQFSKHVGRSQFSVIRDAGHFLDMENKTACENTRNVMLGFLK	failed
MRPGAPGPLWPLPWGALAWAVGFVSSMGSGNPAPGGVCWLQQGQEATCSLVLQTDVTRAECCASGNIDTAWSNLTHPGNKINLLGFLGLVHCLPCKDSCDGVECGPGKACRMLGGRPRCECAPDCSGLPARLQVCGSDGATYRDECELRAARCRGHPDLSVMYRGRCRKSCEHVVCPRPQSCVVDQTGSAHCVVCRAAPCPVPSSPGQELCGNNNVTYISSCHMRQATCFLGRSIGVRHAGSCAGTPEEPPGGESAEEEENFV	failed
MRPLISICMIVKNEAHILRQSLASFRKFTEEIIIVDTGSTDDTKEIAKEFTDFVYDFEWTGNFSDARNFAAKHATGKWILAIDADECLEEESYRKLEKQLKSPIEPIQMAQIISFTGEKGRVTTTNQMARVYKNDGTICFRGVIHEQLEAVDKHAIEAGLAEVKIYHYGYMSEIVEKQDKSDRNLRLLEKEVKNNKNSGFVHFNIGQEMNRLGNKKEALKEFSEAFRLRDNNHYIWAKLSAYHISELLEQEKRYDESLAIIEEAKVIWPNVPEFPLKKANILYVNHQLEDAKEIYKSLLENTAIDYQPIVLYEATNFMPHKMLGTIYLEEKDYTRAMTHFSKAYAENSSDYGVMFQMIMLLSKFHQPKEIFAFMERHNFISSTETGLRLLSMTTQQGYAELSELIVQSLTDVYPPVAEATEVKIATIRNVFPVISESAILFGIKEELIDAADLCLWHYENPQLPIERVMKNSDVGEIYDFIFENGPKISKKRYLFVLERAIALGKGEFADYLLALRNVYHDSINSHIADLFFQYDFADIALDFYNIVDADEVTKQGYINLINYLVDADVLDEALAIAERGIDNFSTDFRFYLWAIKIDTENRANRISEAMDEFPNNRYLAKLLDEVTMLQDTVTNNR	failed
MRPVLVLLHRYVGLATALFLFLAGLTGSLLAFHHEIDEWLNPGFYAVGEGGERLSPGSLVQRVESRYPRQLVWYMEYPEAGGHPALLATVPREAGAKVEHDVFYLDPVSGEEVGKRLWAACCFQPANLVPWVLEFHHNLTLPGNWGLYLMGGVAMFWFLDCFVGAWLTLPRGRPFWSKWTTAWKIKRGNAYRFNFDLHRAGGLWLWLLLAPVALSSVALNLPSQVFKPLVSLFSPIEPSVYEARGRLPREQLGETRLDYDRTFQLASVEAARLGIAEPIGELYYSFEYNFFGAGFGDHDDPMGKSWLFFHGSDGRLLGQEVAGQGSWGERFYRLQYPIHGGRIAGLPGRIAIAALGLAIAGLSLTGVYIWWRKRRARHWNGR	failed
MRPVYFLSDFGLEDPYVAVVKAVLAERAPGPAVVDLAHALPPQDLRRAAYALFEALPYLPEGAVVLAVVDPGVGTARRAVAALGRWTYVGPDNGLFTLAWLLDPPRRAFLLEPPRPRPKAALPGWAPGEATFHGRDVFAPAAAHLALGLPPEGLGPEVPVETLARLPLALTEGPEGEVLTFDRFGNAITTLLRAPVGGFVEVGGRRVPVRRTFGEVPEGAPVAYLGSAGLLEVAVNRGSAREALGLKEGMPVRLL	not failed
MRQAKTDLAEQIFSATDRLMAREGLNQLSMLKLAKEANVAAGTIYLYFKNKDELLEQFAHRVFSMFMATLEKDFDETKPFFEQYRQMWKNIWYFLQENPTILSNLKQYESLPNFKDICKNIKNCRWDLFCHQAQKAGLLAELSEDILFLLSLKTAINLASDAKFIDFDLKPEILESVIERSWRAIQK	not failed
MRQFQRLANDGLKSCPPKSGCPMHILFIGYGKTSQRIAKHLFAQGHQITAVSRHPKPQDFVTHLTQDIHQLNLDQCSPIDWVYVLLAPENSDAQSYKHTYLDSVQPIARALATHPVKRVVVVSSTRVYGQQQAGEIVNDQTIAKPVDQQGAYLLEMEEAWQNAFAEHCTIIRPSGIYGNSISRMVKLAKNTTEYPVIHYSNRIHIEDLARFLAFMTQMPCCQPSYLISDGHPYPLHEIILWFQKQLALPQLVLQSDSVTGKRIVPVNFLTTGFELQAEDCFEIYGNLLRSVDT	failed
MRQVTVGGMRVDLVSEIASLAFDKSWLFANVTDAVIAENRSWLDHRYIEPATGRFILSHHSYLVRAPRWTAIVDTCCGNHKKRPRVPVWNDLNQPYLENMRALGVAPEEVDFVMCTHLHVDHVGWNTRLLDGRWVPTFPNARYLMGREEYRHFEAAHNAAPKSPVNHGSFEDSVLPVVAAGLAEFVETDHRLFEDRDAALRFAPAPGHTAGNMQIHLNGGHDHAVMSGDVIHHPIQCAAPWLSNAADVDPAAAVATRMALLEELADTPSYLLTGHFPAPTAGRVIRHGDTYRFRFED	failed
MRRASQMFDFIGFKEGAMAFLLAFALAGLFTIAFKYVYQWVTPYNEKALIREGNTAAAIALAGALIGYVLPLASALSHTVSLPEFAAWATLAGVIQIAAFTGVRLVALPDVKARIENGEVSVGVYLAGISIAVGLLNAACMTT	failed
MRREKTMDTLIRSIMIKSKRKMDAKVAQFGLTTQQARVLGFLNDNAANEIIQKDLQRIFQTRGASITSLIQGLEKKQLISRKPSIRDGREKVVTLTEEGKRIVDEFNESFPREDDKAKKILSADEYKIFIDLLSKIDDNTELEHHHHHH	not failed
MRREKTMDTLIRSIMIKSKRKMDAKVAQFGLTTQQARVLGFLNDNAANEIIQKDLQRIFQTRGASITSLIQGLEKKQLISRKPSLRDGREKVVTLTKEGKDIVDEFNASFPREDDKAKKILSADEYKTFIELLSKIDDQTD	failed
MRRFGKWLGRVLLAALCAALVIGLWKGEEIKRLMAVNSLFEPDLIVRNFSNMDAAFLHTPVGEAQTPPSALPDGPKMTLPDGTAAWLAARKVTSLVVLSNGQLVHESYHLGTKAEDRRISWSLAKSYISALTGIVLAQGSIASLDDPVTRYAPRLKGGAYDGATVRNVLNMATGVTFDEDYTDYDSDINRMGRVLALGGLMDDFAAGLTQTFARPGSEWQYVSIDTHVLGMVIRAATGRSVVDLMGAHIITPLGLESTPYYLTDGAGVAFALGGLNMTTRDYARFGQMMAQHGAWNGRQIVPKNWVIDSTTASAPTGPDEYGYGYQWWMPRDARPREYMGRGIYGQYLYINEEQGVVVALTAADAAFRDADVQQQNIALFREIADRVQGDANGKR	failed
